To fix the notation:
B1: 356 (protein)
chain: MAQGKVALEEHFAIPETLQDSAGFVPGDYWKELQHRLLDIQDTRLKLMDAHGIETMILSLAAPAVQAIPDRRKAIEIARRANDMLAEECAKRPDRFLAFAALPLQDPDAATEELQRCVNDLGFVGALVNGFSVEGDGQTPLYYDLPQYRPFWGEVEKLDVPFYLHPRNPLPQDSRIYDGHPWLLGPTWAFAQETAVHALRLMASGLFDEHPRLNIILGHLGEGLPYMMYRIDHRIAWVHEPPRYPAKRRFMDYFNENFHITTSGNFRTQTLIDAILEIGADRILFSTDWPFENIDHAADWFNATSIAEADRLKIGRTNARRLFKLDGD
modifications: Dicamba decarboxylase variant
B2: 360 (protein)
chain: MAQGKVALEEHFAIPETLQDSAGFVPGDYWKELQHRLLDIQDTRLKLMDAHGIETMILSLAAPAVQAIPDRRQAIEIARRANDFLAEECAKRPDRFLAFAALPLQDPDAATEELQRCVNDLGFVGALVNGFSVEGDGQTPLYYDLPQYRPFWGEVEKLDVPFYLHPRNPLPQDSRIYDGHPWLLGPTWAFAQETAVHALRLMASGLFDEHPRLNIILGHLGEGLPYMMYRIDHRIAWVKLPPRYPAKRRFMDYFNENFHITTSGNFRTQTLIDAILEIGADRILFSTDWPFENIDHAADWFNATSIAEADRLKIGRTNARRLFKLDGA
modifications: Dicamba decarboxylase variant
B3: 358 (protein)
chain: MAQGKVALEEHFAIPETLQDSAGFVPGDYWKELQHRLLDIQDTRLKLMDAHGIETMILSLAAPAVQAIPDRRKAIEIARRANDFLAEECAKRPDRFLAFAALPLQDPDAATEELQRCVNDLGFVGALVNGFSVEGDGQTPLYYDLPQYRPFWGEVEKLDVPFYLHPRNPLPQDSRIYDGHPWLLGPTWAFAQETAVHALRLMASGLFDEHPRLNIILGHMGEGLPYMMYRIDHRIAWVKLPPRYPAKRRFMDYFNENFHITTSGNFRTQTLIDAILEIGADRILFSTDWPFENIDHATAWFNATSIAEADRLKIGRTNARRLFKLDGA
modifications: Dicamba decarboxylase variant
B4: 369 (protein)
chain: MAQGKVALEEHFAIPETLQDSAGFVPGDYWKELQHRLLDIQDTRLRLMDAHGIETMILSLAAPAVQAIPDRRKAIEIARRANDFLAEECAKRPDRFLAFAALPLQDPDAATEELQRCVNDLGFVGALVNGFSQEGDGQTPLYYDLPQYRPFWGEVEKLDVPFYLHPRNPLPQDSRIYDGHPWLLGPTWAFAQETAVHALRLMASGLFDEHPRLNIILGHMGEGLPYMMYRIDHRIAWVHEPPRYPAKRRFMDYFNENFHITTSGNFRTQTLIDAILEIGADRILFSTDWPFENIDHAADWFNATSIAEADRVKIGRTNARRLFKLDGA
modifications: Dicamba decarboxylase variant
B5: 368 (protein)
chain: MAQGKVALEEHFAIPETLQDSAGFVPGDYWKELQHRLLDIQDTRLKLMDAHGIETMILSLAAPGVQAIPDRRKAIEIARRANDMLAEECAKRPDRFLAFAALPLQDVDAATEELQRCVNDLGFVGALVNGFSVEGDGQTPLYYDLPQYRPFWGEVEKLDVPFYLHPRNPLPQDSRIYDGHPWLLGPTWAFAQETAVHALRLMASGLFDEHPRLNIILGHMGEGLPYMMYRIDHRIAWVHEPPRYPAKRRFMDYFLENFHITTSGNFRTQTLIDAILEIGADRILFSTDWPFENIDHAADWFNATSIAEADRLKIGRTNARRLFKLDGD
modifications: Dicamba decarboxylase variant
B6: 357 (protein)
chain: MAQGKVALEEHFAIPETLQDSAGFVPGDYWKELQHRLLDIQDTRLKLMDAHGIETMILSLAAPAVQAIPDRRKAIEIARRANDFLAEECAKRPDRFLAFAALPLQDPDAASEELQRCVNDLGFVGALVNGFSVEGDGQTPLYYDLPQYRPFWGEVEKLDVPFYLHPRNPLPQDSRIYDGHPWLLGPTWAFAQETAVHALRLMASGLFDEHPRLNIILGHMGEGLPYMMYRIDHRIAWVHEPPRYPAKRRFMDYFNENFHITTSGNFRTQTLIDAILEIGADRILFSTDWPFENIDHAADWFNATSIAEADRVKIGRTNARRLFKLDLD
modifications: Dicamba decarboxylase variant
B7: 361 (protein)
chain: MAQGKVALEEHFAIPETLQDSAGFVPGDYWKELQHRLLDIQDTRLKLMDAHGIETMILSLAAPAVQAIPDRRKAIEIARRANDFLAEECAKRPDRFLAFAALPLQDPDAATEELQRCVNDLGFVGALVNGFSQEGDGQTPLYYDLPQYRPFWGEVEKLDVPFYLHPRNPLPQDSRIYDGHPWLLGPTWAFAQETAVHALRLMASGLFDEHPRLNIILGHMGEGLPYMMYRIDHRIAWVKLPPRYPAKRRFMDYFNENFHITTSGNFRTQTLIDAILEIGADRILFSTDWPFENIDHAADWFNATSIAEADRLKIGRTNARRLFKLDGA
modifications: Dicamba decarboxylase variant
B8: 370 (protein)
chain: MAQGKVALEEHFAIPETLQDSAGFVPGDYWKELQHRLLDIQDTRLKLMDAHGIETMILSLAAPAVQAIPDRRKAIEIARRANDFLAEECAKRPDRFLAFAALPLQDVDAASEELQRCVNDLGFVGALVNGFSVEGDGQTPLYYDLPQYRPFWGEVEKLDVPFYLHPRNPLPQDSRIYDGHPWLLGPTWAFAQETAVHALRLMASGLFDEHPRLNIILGHMGEGLPYMMYRIDHRIAWVKLPPRYPAKRRFMDYFNENFHITTSGNFRTQTLIDAILEIGADRILFSTDWPFENIDHAADWFNATSIAEADRLKIGRTNARRLFKLDGD
modifications: Dicamba decarboxylase variant
B9: 365 (protein)
chain: MAQGKVALEEHFAIPETLQDSAGFVPGDYWKELQHRLLDIQDTRLKLMDAHGIETMILSLAAPAVQAIPDRRKAIEIARRANDFLAEECAKRPDRFLAFAALPLQDPDAATEELQRCVNDLGFVGALVNGFSQEGDGQTPLYYDLPQYRPFWGEVEKLDVPFYLHPRNPLPQDSRIYDGHPWLLGPTWAFAQETAVHALRLMASGLFDEHPRLNIILGHMGEGLPYMMYRIDHRIAWVHEPPRYPAKRRFMDYFNENFHITTSGNFRTQTLIDAILEIGADRILFSTDWPFENIDHAADWFNATSIAEADRVKIGRTNARRLFKLDGA
modifications: Dicamba decarboxylase variant
B10: 359 (protein)
chain: MAQGKVALEEHFAIPETLNDSAGFVPGDYWKELQHRLLDIQDTRLKLMDAHGIETMILSLAAPAVQAIPDRRKAIEIARRANDFLAEECAKRPDRFLAFAALPLQDPDAATEELQRCVNDLGFVGALVNGFSQEGDGQTPLYYDLPQYRPFWGEVEKLDVPFYLHPRNPLPQDSRIYDGHPWLLGPTWAFAQETAVHALRLMASGLFDEHPRLNIILGHLGEGLPYMMYRIDHRIAWVKLPPRYPAKRRFMDYFNENFHITTSGNFRTQTLIDAILEIGADRILFSTDWPFENIDHAADWFNETSIAEADRVKIGRTNARRLFKLDGA
modifications: Dicamba decarboxylase variant
B11: 363 (protein)
chain: MAQGKVALEEHFAIPETLQDSAGFVPGDYWKELQHRLLDIQDTRLKLMDAHGIETMILSLAAPGVQAIPDRRKAIEIARRANDILAEECAKRPDRFLAFAALPLQDPDAATEELQRCVNDLGFVGALVNGFSQEGDGQTPLYYDLPQYRPFWGEVEKLDVPFYLHPRNPLPQDSRIYDGHPWLLGPTWAFAQETAVHALRLMASGLFDEHPRLNIILGHMGEGLPYMMYRIDHRIAWVQEPPRYPAKRRFMDYFNENFHITTSGNFRTQTLIDAILEIGADRILFSTDWPFENIDHAADWFNATSIAEADRVKIGRTNARRLFKLDGA
modifications: Dicamba decarboxylase variant
B12: 362 (protein)
chain: MAQGKVALEEHFAIPETLQDSAGFVPGDYWKELQHRLLDIQDTRLKLMDAHGIETMILSLAAPAVQAIPDRRKAIEIARRANDMLAEECAKRPDRFLAFAALPLQDPDAATEELQRCVNDLGFVGALVNGFSQEGDGQTPLYYDLPQYRPFWGEVEKLDVPFYLHPRNPLPQDSRIYDGHPWLLGPTWAFAQETAVHALRLMASGLFDEHPRLNIILGHMGEGLPYMMYRIDHRIAWVHEPPRYPAKRRFMDYFNENFHITTSGNFRTQTLIDAILEIGADRILFSTDWPFENIDHAADWFNATSIAEADRVKIGRTNARRLFKLDLD
modifications: Dicamba decarboxylase variant
B13: 367 (protein)
chain: MAQGKVALEEHFAIPETLQDSAGFVPGDYWKELQHRLLDIQDTRLKLMDAHGIETMILSLAAPAVQAIPDRRKAIEIARRANDFLAEECAKRPDRFLAFAALPLQDPDAATEELQRTVNDLGFVGALVNGFSVEGDGQTPLYYDLPQYRPFWGEVEKLDVPFYLHPRNPLPQDSRIYDGHPWLLGPTWAFAQETAVHALRLMASGLFDEHPRLNIILGHMGEGLPYMMYRIDHRIAWVKLPPRYPAKRRFMDYFNENFHITTSGNFRTQTLIDAILEIGADRILFSTDWPFENIDHAADWFNATSIAEADRVKIGRTNARRLFKLDGD
modifications: Dicamba decarboxylase variant
B14: 366 (protein)
chain: MAQGKVALEEHFAIPETLQDSAGFVPGDYWKELQHRLLDIQDTRLKLMDAHGIETMILSLAAPAVQAIPDRVQAIEIARRANDFLAEECAKRPDRFLAFAALPLQDPDAATEELQRCVNDLGFVGALVNGFSQEGDGQTPLYYDLPQYRPFWGEVEKLDVPFYLHPRNPLPQDSRIYDGHPWLLGPTWAFAQETAVHALRLMASGLFDEHPRLNIILGHMGEGLPYMMYRIDHRIAWVKLPPRYPAKRRFMDYFNENFHITTSGNFRTQTLIDAILEIGADRILFSTDWPFENIDHAADWFNATSIAEADRLKIGRTNARRLFKLDLD
modifications: Dicamba decarboxylase variant
B15: 364 (protein)
chain: MAQGKVALEEHFAIPETLQDSAGFVPSEYLKELQHRLLDIQDTRLKLMDAHGIETMILSLAAPAVQAIPDRRKAIEIARRANDFLAEECAKRPDRFLAFAALPLQDPDAATEELQRTVNDLGFVGALVNGFSQEGDGQTPLYYDLPQYRPFWGEVEKLDVPFYLHPRNPLPQDSRIYDGHPWLLGPTWAFAQETAVHALRLMASGLFDEHPRLNIILGHMGEGLPYMMYRIDHRIAWVKLPPRYPAKRRFMDYFNENFHITTSGNFRTQTLIDAILEIGADRILFSTDWPFENIDHAADWFNATSIAEADRVKIGRTNARRLFKLDGA
modifications: Dicamba decarboxylase variant

The nature of the experiment: DNA shuffling libraries: 14CO2 capturing assay in 384-well format, fold activity of backbone (Megatable 2). The note with it: relative to backbone SEQ ID NO: 133 (DDEC0201).
As for B1, the “Fold Activity” value worked out at 1.0 fold. Then B2, with 1.1 fold; and B3, with 0.9 fold. Then B4, with 1.1 fold; and B5, with 0.9 fold. As to B6, the “Fold Activity” value turned out to be 1.4 fold. With B7, the “Fold Activity” value came out at 1.0 fold.

Consider B8, for which the “Fold Activity” value is listed as 0.9 fold. As to B9, the “Fold Activity” value is on record as 1.6 fold. Turning to B10, the “Fold Activity” value turned out to be 1.3 fold.

Take B11: the “Fold Activity” value was determined as 0.9 fold. Then B12, with 0.9 fold; and B13, with 0.9 fold.

In the case of B14, the “Fold Activity” value worked out at 0.9 fold. For the molecule B15, the “Fold Activity” value is recorded as 1.0 fold.

Values taken from patent publication US20160040149A1, “Compositions Having Dicamba Decarboxylase Activity and Methods of Use” (priority 2013, published 2016).
